T1: human CD30 (commercial, conjugated to digoxigenin) (human, UniProt P28908 19-379, limits assumed, conjugated to digoxigenin (DIG))
T1 sequence (looked up): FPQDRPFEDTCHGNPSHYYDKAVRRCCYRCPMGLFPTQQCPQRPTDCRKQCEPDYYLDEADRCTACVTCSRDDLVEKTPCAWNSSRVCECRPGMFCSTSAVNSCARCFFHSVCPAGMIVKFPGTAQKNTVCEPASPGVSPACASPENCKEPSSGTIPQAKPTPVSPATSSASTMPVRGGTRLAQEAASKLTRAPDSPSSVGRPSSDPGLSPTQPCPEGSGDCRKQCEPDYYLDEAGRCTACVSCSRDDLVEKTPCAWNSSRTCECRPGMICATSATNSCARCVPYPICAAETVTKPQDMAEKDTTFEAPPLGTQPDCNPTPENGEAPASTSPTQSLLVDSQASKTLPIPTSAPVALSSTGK

B1: AC10 H3/L3.20 (antibody, IgG1, name in Kabat numbering, V domains shown)
VH: QIQLVQSGPEVKKPGASVKVSCKASGYTFTDYYITWVRQAPGQGLEWMGWIYPGSGNTKYNEKFQGRFVFSVDTSASTAYLQISSLKAEDTAVYFCANYGNYWFAYWGQGTLVTVSS
VL: DIVLTQSPDSLAVSLGERATINCKASQSVDFDGYSYMNWYQQKPGQPPKVLIYAASNLESGIPARFSGSGSGTDFTLTINSLEAEDAATYYCQQSNEDPWTFGGGTKVEIK
B2: AC10 H3/L3.21 (antibody, IgG1, name in Kabat numbering, V domains shown)
VH: QIQLVQSGPEVKKPGASVKVSCKASGYTFTDYYITWVRQAPGQGLEWMGWIYPGSGNTKYNEKFQGRFVFSVDTSASTAYLQISSLKAEDTAVYFCANYGNYWFAYWGQGTLVTVSS
VL: DIVLTQSPDSLAVSLGERATINCKASQSVDFDGDDYMNWYQQKPGQPPKVLIYAASNLESGIPARFSGSGSGTDFTLTINSLEAEDAATYYCQQSNEDPWTFGGGTKVEIK
B3: AC10 H3/L3.22 (antibody, IgG1, name in Kabat numbering, V domains shown)
VH: QIQLVQSGPEVKKPGASVKVSCKASGYTFTDYYITWVRQAPGQGLEWMGWIYPGSGNTKYNEKFQGRFVFSVDTSASTAYLQISSLKAEDTAVYFCANYGNYWFAYWGQGTLVTVSS
VL: DIVLTQSPDSLAVSLGERATINCKASQSVDFDGDTYMNWYQQKPGQPPKVLIYAASNLESGIPARFSGSGSGTDFTLTINSLEAEDAATYYCQQSNEDPWTFGGGTKVEIK
B4: AC10 H3/L3.23 (antibody, IgG1, name in Kabat numbering, V domains shown)
VH: QIQLVQSGPEVKKPGASVKVSCKASGYTFTDYYITWVRQAPGQGLEWMGWIYPGSGNTKYNEKFQGRFVFSVDTSASTAYLQISSLKAEDTAVYFCANYGNYWFAYWGQGTLVTVSS
VL: DIVLTQSPDSLAVSLGERATINCKASQSVDFDGDNYMNWYQQKPGQPPKVLIYAASNLESGIPARFSGSGSGTDFTLTINSLEAEDAATYYCQQSNEDPWTFGGGTKVEIK
B5: AC10 H3/L3.24 (antibody, IgG1, name in Kabat numbering, V domains shown)
VH: QIQLVQSGPEVKKPGASVKVSCKASGYTFTDYYITWVRQAPGQGLEWMGWIYPGSGNTKYNEKFQGRFVFSVDTSASTAYLQISSLKAEDTAVYFCANYGNYWFAYWGQGTLVTVSS
VL: DIVLTQSPDSLAVSLGERATINCKASQSVDFDGDSDMNWYQQKPGQPPKVLIYAASNLESGIPARFSGSGSGTDFTLTINSLEAEDAATYYCQQSNEDPWTFGGGTKVEIK
B6: AC10 H3/L3.25 (antibody, IgG1, name in Kabat numbering, V domains shown)
VH: QIQLVQSGPEVKKPGASVKVSCKASGYTFTDYYITWVRQAPGQGLEWMGWIYPGSGNTKYNEKFQGRFVFSVDTSASTAYLQISSLKAEDTAVYFCANYGNYWFAYWGQGTLVTVSS
VL: DIVLTQSPDSLAVSLGERATINCKASQSVDFDGDSYLNWYQQKPGQPPKVLIYAASNLESGIPARFSGSGSGTDFTLTINSLEAEDAATYYCQQSNEDPWTFGGGTKVEIK
B7: AC10 H3/L3.27 (antibody, IgG1, name in Kabat numbering, V domains shown)
VH: QIQLVQSGPEVKKPGASVKVSCKASGYTFTDYYITWVRQAPGQGLEWMGWIYPGSGNTKYNEKFQGRFVFSVDTSASTAYLQISSLKAEDTAVYFCANYGNYWFAYWGQGTLVTVSS
VL: DIVLTQSPDSLAVSLGERATINCKASQSVDFDGDSYMAWYQQKPGQPPKVLIYAASNLESGIPARFSGSGSGTDFTLTINSLEAEDAATYYCQQSNEDPWTFGGGTKVEIK
B8: AC10 H3/L3.28 (antibody, IgG1, name in Kabat numbering, V domains shown)
VH: QIQLVQSGPEVKKPGASVKVSCKASGYTFTDYYITWVRQAPGQGLEWMGWIYPGSGNTKYNEKFQGRFVFSVDTSASTAYLQISSLKAEDTAVYFCANYGNYWFAYWGQGTLVTVSS
VL: DIVLTQSPDSLAVSLGERATINCKASQSVDFDGDSYMDWYQQKPGQPPKVLIYAASNLESGIPARFSGSGSGTDFTLTINSLEAEDAATYYCQQSNEDPWTFGGGTKVEIK
B9: AC10 H3/L3.30 (antibody, IgG1, name in Kabat numbering, V domains shown)
VH: QIQLVQSGPEVKKPGASVKVSCKASGYTFTDYYITWVRQAPGQGLEWMGWIYPGSGNTKYNEKFQGRFVFSVDTSASTAYLQISSLKAEDTAVYFCANYGNYWFAYWGQGTLVTVSS
VL: DIVLTQSPDSLAVSLGERATINCKASQSVDFDGDSYMNWYQQKPGQPPKLLIYAASNLESGIPARFSGSGSGTDFTLTINSLEAEDAATYYCQQSNEDPWTFGGGTKVEIK
B10: AC10 H3/L3.32 (antibody, IgG1, name in Kabat numbering, V domains shown)
VH: QIQLVQSGPEVKKPGASVKVSCKASGYTFTDYYITWVRQAPGQGLEWMGWIYPGSGNTKYNEKFQGRFVFSVDTSASTAYLQISSLKAEDTAVYFCANYGNYWFAYWGQGTLVTVSS
VL: DIVLTQSPDSLAVSLGERATINCKASQSVDFDGDSYMNWYQQKPGQPPKSLIYAASNLESGIPARFSGSGSGTDFTLTINSLEAEDAATYYCQQSNEDPWTFGGGTKVEIK
B11: AC10 H3/L3.33 (antibody, IgG1, name in Kabat numbering, V domains shown)
VH: QIQLVQSGPEVKKPGASVKVSCKASGYTFTDYYITWVRQAPGQGLEWMGWIYPGSGNTKYNEKFQGRFVFSVDTSASTAYLQISSLKAEDTAVYFCANYGNYWFAYWGQGTLVTVSS
VL: DIVLTQSPDSLAVSLGERATINCKASQSVDFDGDSYMNWYQQKPGQPPKVLIYDASNLESGIPARFSGSGSGTDFTLTINSLEAEDAATYYCQQSNEDPWTFGGGTKVEIK
B12: AC10 H3/L3.34 (antibody, IgG1, name in Kabat numbering, V domains shown)
VH: QIQLVQSGPEVKKPGASVKVSCKASGYTFTDYYITWVRQAPGQGLEWMGWIYPGSGNTKYNEKFQGRFVFSVDTSASTAYLQISSLKAEDTAVYFCANYGNYWFAYWGQGTLVTVSS
VL: DIVLTQSPDSLAVSLGERATINCKASQSVDFDGDSYMNWYQQKPGQPPKVLIYSASNLESGIPARFSGSGSGTDFTLTINSLEAEDAATYYCQQSNEDPWTFGGGTKVEIK
B13: AC10 H3/L3.37 (antibody, IgG1, name in Kabat numbering, V domains shown)
VH: QIQLVQSGPEVKKPGASVKVSCKASGYTFTDYYITWVRQAPGQGLEWMGWIYPGSGNTKYNEKFQGRFVFSVDTSASTAYLQISSLKAEDTAVYFCANYGNYWFAYWGQGTLVTVSS
VL: DIVLTQSPDSLAVSLGERATINCKASQSVDFDGDSYMNWYQQKPGQPPKVLIYAASTLESGIPARFSGSGSGTDFTLTINSLEAEDAATYYCQQSNEDPWTFGGGTKVEIK
B14: AC10 H3/L3.38 (antibody, IgG1, name in Kabat numbering, V domains shown)
VH: QIQLVQSGPEVKKPGASVKVSCKASGYTFTDYYITWVRQAPGQGLEWMGWIYPGSGNTKYNEKFQGRFVFSVDTSASTAYLQISSLKAEDTAVYFCANYGNYWFAYWGQGTLVTVSS
VL: DIVLTQSPDSLAVSLGERATINCKASQSVDFDGDSYMNWYQQKPGQPPKVLIYAASNRESGIPARFSGSGSGTDFTLTINSLEAEDAATYYCQQSNEDPWTFGGGTKVEIK
B15: AC10 H3/L3.39 (antibody, IgG1, name in Kabat numbering, V domains shown)
VH: QIQLVQSGPEVKKPGASVKVSCKASGYTFTDYYITWVRQAPGQGLEWMGWIYPGSGNTKYNEKFQGRFVFSVDTSASTAYLQISSLKAEDTAVYFCANYGNYWFAYWGQGTLVTVSS
VL: DIVLTQSPDSLAVSLGERATINCKASQSVDFDGDSYMNWYQQKPGQPPKVLIYAASNLASGIPARFSGSGSGTDFTLTINSLEAEDAATYYCQQSNEDPWTFGGGTKVEIK
B16: AC10 H3/L3.40 (antibody, IgG1, name in Kabat numbering, V domains shown)
VH: QIQLVQSGPEVKKPGASVKVSCKASGYTFTDYYITWVRQAPGQGLEWMGWIYPGSGNTKYNEKFQGRFVFSVDTSASTAYLQISSLKAEDTAVYFCANYGNYWFAYWGQGTLVTVSS
VL: DIVLTQSPDSLAVSLGERATINCKASQSVDFDGDSYMNWYQQKPGQPPKVLIYAASNLQSGIPARFSGSGSGTDFTLTINSLEAEDAATYYCQQSNEDPWTFGGGTKVEIK

Each binder was assayed against T1, human CD30 (commercial, conjugated to …) (assay: AlphaScreen competition).
B1 was tested, and the “Fold IC50 vs H3/L3” value was 0.78 fold. For B2, the “Fold IC50 vs H3/L3” value was 0.81 fold. In the case of B3, the “Fold IC50 vs H3/L3” value is reported as 0.46 fold. For B4, the “Fold IC50 vs H3/L3” value was 0.71 fold. With B5 the “Fold IC50 vs H3/L3” value was 0.46 fold. With B6 the “Fold IC50 vs H3/L3” value was 1.36 fold. B7 was tested, and the “Fold IC50 vs H3/L3” value was 0.38 fold. With B8 the “Fold IC50 vs H3/L3” value was 0.41 fold. With B9 the “Fold IC50 vs H3/L3” value was 0.39 fold. For B10, the “Fold IC50 vs H3/L3” value was 0.32 fold. For B11, the “Fold IC50 vs H3/L3” value was 0.26 fold. With B12 the “Fold IC50 vs H3/L3” value was 0.47 fold. With B13 the “Fold IC50 vs H3/L3” value was 1.26 fold. For B14, the “Fold IC50 vs H3/L3” value was 1.46 fold. B15 was tested, and the “Fold IC50 vs H3/L3” value was 0.85 fold. With B16 the “Fold IC50 vs H3/L3” value was 0.87 fold.

From patent publication US7657380
